Source: the domain aggregation screens of Martell et al. (2025)

Experiment: soluble fraction after stress (log2 fold change); higher = more stays soluble; pooled small domains, quantitative proteomics
Conditions: stress: 75 degC
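Note: 20 min heating vs room temperature control held 20 min.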

Sequence | soluble fraction (log2)
HMSMSLQFLSRRIRLQREKRGLKQHDIAHALQISPQAVSKWERGENAPDIALLRPLAGLLGVSIDWLMGGD | -3.27
HMSNEEEIEGLVSKVLDNNPEIVERIRSGEDKLISYLVGEVMKQSSSSLNPGIVKEIIVNKTI | 0.091
HMSNEITVPDLSGMSLEELETILSDRSLSYEIIDSIYNSTAKKGTVSSQDPLPDAKVKSGRTIYITVVSKL | -1.85
HMSNENIDQDELQAIIQKVLASNQDAVAKYKAGKTAVIGFLIGQVMRQLNKKIDVALAKKTLLVFLEK | -1.42
HMSNETKSAILNFAEKHHDFNIDDLFESLSKSMDINRSSLLWHLFKLVNSNVLIRTGRGMYAKV | -2.62
HMSNEVSYSDFVRSVESDEVNAVTLDGEQIRFVGNDGQTYSVIKPADAQITQLLIDNNVTVRAEQQ | 0.123
HMSNEYLMPNLIGMSWDEAKSKYSQYMTLVPEQEWSEVTKDQIFDQEYPEGRKVKIGTEVTVKVSMGI | -0.654
HMSNFGALLRMRRLEAGLSYRGLAEQSGLARATLVNLEQGLTKPSPLTMRRLASVKALRLTEL | -3.17
HMSNFGERLRALRQDRQMTLQQASKVTGVAQSTLSKMENNQLSPTFNLMQKLAIGLGIDMPQLFAPVK | -0.642
HMSNGEWQQGSDGRWWYKFSDGTYPKNKVETIGGKKYGFDSEGWMLANTTKEFSGTTYSFGADGVATS | 0.223
HMSNHYETLGVEQTASVDEIKKAYRRLSLQYHPDRNTTSDAVGKFQKINDAHEILSDKQSRTEYDMQLK | 0.0273
HMSNIQLAANLQRLRKDHHFTQTQFSKKLNISRQAYSNYETGKRIPDLDIIIRIANIYHISLENLL | -0.305
HMSNKYYETILDWFKSQIMSGELKEGDTIPSERELATRFGVSRVPVREALRILEYIGIVSNTADGMTVQKV | -1.72
HMSNLKKRRLEKNLTLDDVGKLVGVSAATISRWESGDIENMRSDKIVKLANALEISPAVILGW | -0.0179
HMSNLLKNILDVLEKEGPLKARKIALLLDSTRTTITHTTINSELYKALDLEGLTKNEQNIWSYVT | 0.145
HMSNLVEVPAVIGRMKEDAITMLISAGLEPAVTYDEYPLVKENLVADQSVAPGQKVEKGSFVTITVSRS | -0.0726
HMSNMESLIGREATVIEMIPAEDVGRVKIDGDEWQAVLAREDDNEPRRDIQVGEKVIIVSYDSIILTVKTK | 0.0742
HMSNNENSILEKLNSFSGKKIKVSHTIGSLAARLDEYPKIKMWLYKRIRENSINEQAYKYLIFIIERKVR | -1.34
HMSNPADDVVDLLRQLRLPHMRAAAPELLATAKAQRWDPAEAIRALLTEELAGRQASSINARRK | -0.477
HMSNPPIRIGKKALHELLTTWLSLLSRDGVAYLVVQKNLGADSLTAWLRDQGFPSEKIASKKGFRIIEVH | -0.315
HMSNRDNPVVLDFKKVKSTEQLDNILEEYIRENFEGYTVKGRMFSSDEGKFIIALALKDDDGKRALVYFDV | -1.04
HMSNRIDKIKLNHWLNIRKTSLDVLNNLLSKHLNHKINFENLENLDEQAIEKISEVLSIPKNKLLINDDVP | -0.219
HMSNTVEDLIDDIGTVTKDSKDKIDAARKAYDGLTEDQKKLVPDSVLKTLTDAEAAYAKLTK | 0.567
HMSNWYGTVVKIQPRPNAQAADTAVVKLLDGSEHRFPVWADHLTTIEVGSRLKKLSGGWDPVLMDPEETF | -0.669
HMSNWYKNNETDQIWWKDTPDSVGEWLFSFDKKQVFNMFADYPHNLTPEQKKIFDEENPEWSDRP | -0.351
HMSNYPYLLRTYEGKLAVFTDDLVQPDLVFDVYVRTLPELDQQQLSRGIRVKTYDELTSMIEDYI | -2.22
HMSPAVEDYLEQIHNLIAQKGYARVVDIAGNLKISQASVTNMIQRMDADGLVVYERYRGVVLTETGRK | -1.28
HMSPDLNEVEEKVFRALNGVESMHVNKLGIELNLPVSELFFTLLELEMKNVVKALPGGMYKL | -2.26
